Laboratory results reported in patent US20160280788A1, “USE OF ANTIBODIES AGAINST ICAM-1 IN THE TREATMENT OF PATIENTS WITH RELAPSED CANCER” (BioInvent International AB, priority 2010, published 2016).
“Also recorded” adds a separate entry of the source. Where two headings read alike, the source gives them in different places.

What was measured:
[1] = test system: B lymphoma cell line (CL-01); experiment: ADCC of tumor cells with human NK effector cells; type: cell-based; conditions: human Natural Killer effector cells
Source text: (§1) Buffy coats from human donors (ordered through Blodcentralen, Lund) were used to isolate peripheral blood mononuclear cells (PBMCs), and subsequently NK cells. Briefly, peripheral blood components were separated using Ficoll Paque PLUS (Amersham Biosciences, Sweden) in LeucoSep tubes (Greiner Bio-One). The PBMC fraction was removed and thoroughly washed in ice-cold DPBS (Invitrogen), before magnetic labeling and separation of the NK cell population using positive or negative NK cell isolation kits and MACS LS columns (Miltenyi Biotec). The purity of the obtained NK cell fractions was analyzed using flow cytometry, after staining with α-CD56 antibodies (BD Biosciences). Target cells were harvested, and incubated in medium with or without the respective antibodies (2 μg/mL) for 60 min on ice. Cells were thereafter washed and resuspended in cold medium before dispension into FACS tubes. Subsequently, isolated NK cells were diluted in ADCC medium and dispensed together with the respective antibody-coated target cells at varying effector/target cell ratios (40:1, 20:1, 5:1 and 1:1). All experiments were performed in triplicates. After completed incubation ToPo-Pro-3 dye and counting beads (Invitrogen) were added and cells were analyzed for membrane permeabilization using flow cytometry.

[2] = test system: F4/80 positive host effector cells in ARH-77 xenograft tissue; conditions: compared to control IgG, untreated and rituximab treated mice
Experimental: (FIG. 7A) ARH-77 cells were injected subcutaneously into the left flank of SCID mice (n=8 per group). […] Statistical significance was calculated relative to control antibody treatment using Kruskal-Wallis Test (Nonparametric ANOVA) with Dunn's Multiple Comparisons Test. Statistical significance was considered for *p<0.05, **p<0.01, and ***p<0.001.

human FcγRIIIa = molecular target: T1, human FcγRIIIa (Homo sapiens, UniProt P08637); experiment: Biacore binding of BI-505 isotype variants to human FcγRIIIa
T1 construct: made in house; host or cells: HEK293E (transient)
Experimental: His-tagged human FcγRIIIa or mouse FcγRIV were expressed transient in adherent HEK293E cells, purified using Ni-NTA chromatography and characterized using SDS-PAGE and/or Biacore. Surface plasmon resonance (SPR) measurements were perfomed using a Biacore 3000 instrument. Goat α-human-F(ab)′2 F(ab)′2 fragment (Jackson laboratories) was immobilised with a CM-5 chip using a standard amine coupling protocol. IgG1 B11, Iga4 B11, or 297Q B11 were diluted to 15 and 60 μg/mL respectively and added to the surface at […] for 3 min. His tagged human FcγRIIIa or mouse FcγRIV were pre-incubated with an α-HIS antibody (R&D Systems) at a 2:1 molar ratio before addition to the chip surface, […], 1 min. After each cycle the surface was regenerated twice with glycine buffer pH 1.7.

EJM myeloma cells = experiment: Subcutaneous myeloma xenograft, EJM; type: in vivo, scid mice; conditions: 2 mg/kg twice weekly i.p.; vs control IgG1
Experimental: Antibody treatment with 2 mg/kg BI-505 or control IgG1 was started at Day 1 and was continued on a twice-weekly intraperitoneal dosing regimen. Mice were sacrificed when tumor sizes reached the ethical limit.

ARH-77 cells = experiment: Subcutaneous scid/ARH-77 xenograft, prophylactic model
Experimental: Tumor cells were injected subcutaneously into the left flank of SCID mice. Mice received twice-weekly intraperitoneal injections with BI-505, control antibody or rituximab at doses of 20, 2 and/or 0.2 mg/kg commencing one day after tumor cell inoculation. There were 8 to 10 animals per treatment group. […] Statistical significance was calculated relative to control antibody treatment using Kruskal-Wallis Test (Nonparametric ANOVA) with Dunn's Multiple Comparisons Test (tumor volume) or the log-rank test (mouse survival) using Graphpad Instat or Prism software, respectively. Statistical significance was considered for *p<0.05, **p<0.01, and ***p<0.001.
Tumor cells were injected subcutaneously into the left flank of SCID mice. Mice received twice-weekly intraperitoneal injections with BI-505 at doses of 0.02-20 mg/kg commencing day after tumor cell inoculation. There were 8-10 animals per treatment group. […] Statistical significance was calculated relative to control antibody treatment using Kruskal-Wallis Test (Nonparametric ANOVA) with Dunn's Multiple Comparisons Test (tumor volume) or the log-rank test (mouse survival) using Graphpad Instat or Prism software, respectively. Statistical significance was considered for *p<0.05, **p<0.01, and ***p<0.001. Graphs illustrate representative experiments out of several performed.
(FIG. 7A) ARH-77 cells were injected subcutaneously into the left flank of SCID mice (n=8 per group). Mice were treated with the different BI-505 isotypes twice weekly. […] Statistical significance was calculated relative to control antibody treatment using Kruskal-Wallis Test (Nonparametric ANOVA) with Dunn's Multiple Comparisons Test. Statistical significance was considered for *p<0.05, **p<0.01, and ***p<0.001.
Mice were anaesthetized with a mixture of sevofluran and oxygen prior to myeloma cell inoculation and 1-5×10^6 myeloma cells were then subcutaneously injected in a volume of 100 μl into the left flank.

Daudi cells = experiment: Subcutaneous Daudi non-Hodgkin lymphoma xenograft; type: in vivo, scid mice; conditions: twice weekly i.p. from day 1; compared to rituximab
[3] = test system: HUVEC, HMVEC or peripheral blood B cells; experiment: ADCC of normal ICAM-1 expressing cells; type: cell-based
Source text: as §1

PBMC [4] = experiment: PBMC cytokine release; type: cell-based
PBMC [5] = experiment: PBMC / T cell proliferation; type: cell-based
RPMI-8226 myeloma cells = experiment: Disseminated RPMI-8226 model of multiple myeloma; type: in vivo, SCID mice; conditions: 2 mg/kg i.v. twice weekly for 8 weeks, vs control mAb and standard of care drugs
Experimental: ARH-77 cells or RPMI-8226 were injected intraveniously into the SCID mice. (FIG. 6A) ARH-77 model. Animals received intravenous injections with antibody at 2 mg/kg or bortezomib (Velcade) at 0.5 mg/kg on Days 7, 10, 13, and 16 (as indicated by arrows in the graph). (FIG. 6B) RPMI-8226-model. BI-505 or control mAb was administered i.v at 2 mg/kg, twice weekly for 8 weeks, bortezomid, at 1 mg/kg, once weekly for 8 weeks, lenalidomide p.o with 2 mg/kg for 2 cycles consisting of 5 days of treatment and 2 days of wash out, melphalan i.v at 3 mg/kg, once weekly for 8 weeks, and dexamethasone (DXH) at 6 mg/kg/inj 3 times/week for 2 consecutive weeks. There were 6-10 mice per treatment group. Statistical significance was calculated using Log-rank Graphpad Prism software and determined at ***p<0.001. (FIG. 6C) To study the ICAM-1 level on human cells, the cells from different organs were stained and gated for CD38+/mCD45−/BI-505+. Left panel indicates the percentage of BI-505 positive cells in CD38+/mCD45 population and right panel the mean fluorescent intensity of the positive cells.
The anti-myeloma effect of BI-505 was examined in a disseminated model of multiple myeloma. The early and advanced disseminated model of multiple myeloma was performed at Oncodesign, Dijon, France. […]

[6] = added in solution, resting or lipopolysaccharide pre-stimulated PBMCs
[7] = immobilised by either protocol, or in solution with or without cross-linking reagent

T1 sequence (P08637 17-254): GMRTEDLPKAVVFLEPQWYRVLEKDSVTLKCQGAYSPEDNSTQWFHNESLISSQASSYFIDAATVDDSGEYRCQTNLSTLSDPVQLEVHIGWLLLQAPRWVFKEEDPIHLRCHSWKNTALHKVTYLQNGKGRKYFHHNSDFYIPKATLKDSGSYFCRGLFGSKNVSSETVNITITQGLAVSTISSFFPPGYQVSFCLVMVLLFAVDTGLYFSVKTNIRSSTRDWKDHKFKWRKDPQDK

B1: IgG B11: fully human ICAM-1 antibody isolated from the n-CoDeR library; VH/VL sequences in FIG. 15 (SEQ ID NOs 8, 10) (antibody, V domains shown)
VH: EVQLLESGGGLVQPGGSLRLSCAASGFTFSNAWMSWVRQAPGKGLEWVAFIWYDGSNKYYADSVKGRFTISRDNSKNTLYLQMNSLRAEDTAVYYCARYSGWYFDYWGQGTLVTVSS
VL: QSVLTQPPSASGTPGQRVTISCTGSSSNIGAGYDVHWYQQLPGTAPKLLIYDNNNRPSGVPDRFSGSKSGTSASLAISGLRSEDEADYYCQSYDSSLSAWLFGGGTKLTVLG
modifications: B11 VH region; B11 VL region
- ADCC of target tumor cells [1]: mediated ADCC
- influx of F4/80+ host effector cells (macrophage infiltration) in tumor tissue [2]: massive influx
- influx of F4/80+ host effector cells (macrophage infiltration) in tumor tissue ([2]; listed as BI-505): significantly increased
- binding to human FcγRIIIa (human FcγRIIIa): bound to human FcγRIIIa
- reduction of myeloma tumor growth (EJM myeloma cells): 98%
- tumor growth (ARH-77 cells; 20 mg/kg twice weekly i.p., commencing one day after tumor cell inoculation): completely prevent tumor-growth
- survival (ARH-77 cells; IgG B11 at 2 mg/kg, ten-fold lower dose than rituximab): complete survival
- anti-tumor activity (ARH-77 cells; dose of 0.2 mg/kg, dose titration): near maximal
- dose at which anti-tumor activity peaked (ARH-77 cells; dose titration 0.02-20 mg/kg twice weekly i.p.): 2 mg/kg
- survival of tumor bearing mice (Daudi cells): prolonged survival
- tumor growth (Daudi cells): prevented tumor growth
- ADCC of normal cells [3]: did not confer ADCC
- cytokine release (PBMC [4]; [6]): did not induce or enhance cytokine release
- PBMC cytokine release (PBMC [4]; [7]): induce PBMC cytokine release
- cell proliferation (PBMC [5]; [6]): did not induce cell proliferation
- cell proliferation (PBMC [5]; [7]): did not induce cell proliferation
- survival (RPMI-8226 myeloma cells): significantly enhanced survival
- survival (RPMI-8226 myeloma cells; listed as BI-505): significantly enhances survival; also recorded: highly improved survival
